Experimental data as given in publication PMC4132713.
“And” between values parts separate entries of the source, which are not always exact repeats. Equal entries are not always repeated.

Key:
Conditions in all cases: SPR: TBS (50 mM Tris-HCl, 150 mM NaCl, pH 6.8) or TBS-KCl (150 mM KCl instead of NaCl), 1-32 nM DARPin on 300-500 RU biotinylated DNA; ELISA: 100 nM …
[1] = system: DARPin 1C7 (synthetic construct); test: SPR
[2] = system: DARPin 1G2 (synthetic construct); test: SPR
[3] = system: DARPin 1C11 (synthetic construct); test: SPR
[4] = system: DARPin 1G11 (synthetic construct); test: SPR
[5] = system: DARPin 2G10 (synthetic construct); test: SPR
[6] = system: DARPin 1C7 (synthetic construct); test: SPR; remark: listed apart in the source
[7] = system: DARPin 1G2 (synthetic construct); test: SPR; remark: listed apart in the source
[8] = system: DARPin 1C11 (synthetic construct); test: SPR; remark: listed apart in the source
[9] = system: DARPin 2G10 (synthetic construct); test: SPR; remark: listed apart in the source
[10] = system: DARPin 2E4 (synthetic construct); test: SPR
[11] = system: DARPin 2E4 (synthetic construct); test: SPR; remark: listed apart in the source
[12] = system: DARPin 1C6 (synthetic construct); test: SPR
[13] = system: DARPin 2D10 (synthetic construct); test: SPR
[14] = system: DARPin 2C10 (synthetic construct); test: SPR
[15] = system: DARPin 2G7 (synthetic construct); test: SPR
[16] = system: DARPin 1H4 (synthetic construct); test: SPR
[17] = system: DARPin 2D10 (synthetic construct); test: SPR; remark: listed apart in the source
[18] = system: DARPin 2C10 (synthetic construct); test: SPR; remark: listed apart in the source
[19] = system: DARPin 2G7 (synthetic construct); test: SPR; remark: listed apart in the source
[20] = system: DARPin 1H4 (synthetic construct); test: SPR; remark: listed apart in the source
[21] = system: DARPin 1C6 (synthetic construct); test: competition SPR
[22] = system: DARPin 2D10 (synthetic construct); test: competition SPR
[23] = system: DARPin 2C10 (synthetic construct); test: competition SPR
[24] = system: DARPin 1C7 (synthetic construct); test: competition SPR
[25] = system: DARPin 1G2 (synthetic construct); test: competition SPR
[26] = system: DARPin 2G7 (synthetic construct); test: competition SPR
[27] = system: DARPin 1H4 (synthetic construct); test: competition SPR
[28] = system: DARPin 1C11 (synthetic construct); test: competition SPR
[29] = system: DARPin 2D10 (synthetic construct); test: competition SPR; remark: listed apart in the source
[30] = system: DARPin 2C10 (synthetic construct); test: competition SPR; remark: listed apart in the source
[31] = system: DARPin 1C7 (synthetic construct); test: competition SPR; remark: listed apart in the source
[32] = system: DARPin 1G2 (synthetic construct); test: competition SPR; remark: listed apart in the source
[33] = system: DARPin 2G7 (synthetic construct); test: competition SPR; remark: listed apart in the source
[34] = system: DARPin 1H4 (synthetic construct); test: competition SPR; remark: listed apart in the source
[35] = system: DARPin 1C11 (synthetic construct); test: competition SPR; remark: listed apart in the source
[36] = system: DARPin 2E4 (synthetic construct); test: competition SPR

CAGGGGTGTGGGGACAGGGGTGTGGGGAC [ILPR]
Kd [1]: 33 nM | Kd [2]: 27 nM | Kd [3]: 43 nM | Kd [4]: 44 nM | Kd [5]: 22 nM and 19 nM | Kd [6]: 21 nM and 14 nM | Kd [7]: 9.4 nM and 6.4 nM | Kd [8]: 12 nM and 4 nM

TGAGGGTGGGTAGGGTGGGTAA [c-MYC]
Kd [9]: 90 nM | Kd [1]: 81 nM | Kd [2]: 43 nM | Kd [3]: 49 nM | Kd [10]: 64 nM | Kd [4]: 19 nM | Kd [5]: 100 nM and 15 nM | Kd [7]: 16 nM and 14 nM | Kd [8]: 17 nM and 6.8 nM | Kd [11]: 28 nM and 19 nM

TTAGGGTTAGGGTTAGGGTTAGGG [tel (biotinylated)]
Kd [12]: 16 nM | Kd [13]: 34 nM | Kd [14]: 48 nM | Kd [1]: 37 nM | Kd [2]: 53 nM | Kd [15]: 20 nM | Kd [16]: 62 nM | Kd [3]: 53 nM | Kd [4]: 72 nM | Kd [17]: 18 nM and 22 nM | Kd [18]: 20 nM and 35 nM | Kd [5]: 65 nM and 15 nM | Kd [6]: 15 nM and 3.3 nM | Kd [7]: 7.9 nM and 3.3 nM | Kd [19]: 10 nM and 5.5 nM | Kd [20]: 15 nM and 14 nM | Kd [8]: 11 nM and 8.9 nM | Kd [11]: 4.6 nM and 42 nM

TTAGGGTTAGGGTTAGGGTTAGGG [tel (non-biotinylated)]
Kd [21]: 56 nM | Kd [22]: 110 nM | Kd [23]: 67 nM | Kd [24]: 110 nM | Kd [25]: 69 nM | Kd [26]: 32 nM | Kd [27]: 81 nM | Kd [28]: 100 nM | Kd [29]: 160 nM | Kd [30]: 160 nM | Kd [31]: 160 nM | Kd [32]: 3.6 nM | Kd [33]: 8 nM | Kd [34]: 19 nM | Kd [35]: 72 nM | Kd [36]: 120 nM
